Experimental data: article PMC9859039, “The conserved centrosomin motif, γTuNA, forms a dimer that directly activates microtubule nucleation by the γ-tubulin ring complex (γTuRC)” (eLife, 2022)
No end group written: not given here. 3C = human rhinovirus 3C (PreScission) protease cleavage site; TEV = tobacco etch virus protease cleavage site; Strep‑His = not defined here

Columns and labels:
[1] = target: γ-tubulin ring complex (γTuRC), endogenous Xenopus laevis, P23330;Q5U4M5; assay: pull-down from Xenopus egg extract, western blot quantification; settings: control (beads) bar est. 0.19, read off a plot; for ratio to parent: parent: est. 1.0; for response: scale: normalized band intensity
[2] = target: γ-tubulin ring complex (γTuRC), endogenous Xenopus laevis (Xenopus laevis (endogenous in egg extract)) (UniProt P23330)
Sequence of γ-tubulin ring complex (γTuRC), endogenous Xenopus laevis (Xenopus laevis (endogenous in egg extract)) (P23330 whole entry, looked up, the tested form may be a part, one chain of several): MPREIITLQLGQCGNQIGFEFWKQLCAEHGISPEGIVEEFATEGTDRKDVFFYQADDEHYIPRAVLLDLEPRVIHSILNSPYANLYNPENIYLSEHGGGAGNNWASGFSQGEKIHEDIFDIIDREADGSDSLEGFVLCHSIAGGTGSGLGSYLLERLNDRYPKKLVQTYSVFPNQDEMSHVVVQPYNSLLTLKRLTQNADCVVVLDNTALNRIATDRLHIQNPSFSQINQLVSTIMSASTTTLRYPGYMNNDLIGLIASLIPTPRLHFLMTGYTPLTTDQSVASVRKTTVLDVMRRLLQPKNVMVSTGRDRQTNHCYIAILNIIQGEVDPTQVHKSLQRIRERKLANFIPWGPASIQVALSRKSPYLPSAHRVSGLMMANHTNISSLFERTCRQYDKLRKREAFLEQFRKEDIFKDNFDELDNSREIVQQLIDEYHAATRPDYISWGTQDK

[3] = target: γ-tubulin ring complex (γTuRC), endogenous Xenopus laevis (Xenopus laevis (endogenous in egg extract)) (UniProt P23330); remark: listed apart in the source
[4] = target: Strep-His-TEV-HaloTag-3C-Xenopus γTuNA (Xenopus Cdk5rap2 aa 56–101), wildtype (Xenopus laevis); assay: pull-down; depletion of Xenopus egg extract with Strep-His-Halo-Xenopus γTuNA-coupled beads, a single round; γ-tubulin left in the extract by western blot against mock-treated extract
[5] = target: AU1-human γTuNA (from Strep-His-Halo-3C-AU1-human γTuNA after PreScission cleavage) (human); assay: co-sedimentation; γTuRC pulled from egg extract on Halo-3C-AU1-human γTuNA beads, eluted by 3C cleavage, 10–50% w/w sucrose gradient (200,000 g, 2 °C, 3 hr); AU1 in the peak γTuRC fraction by western blot against a titration of AU1
[6] = target: Strep-His-TEV-HaloTag-3C-Xenopus γTuNA I67A (Xenopus laevis); assay: pull-down; Halo-Magne beads coupled to N-terminally Halo-tagged γTuNA baits; 200 µL Xenopus egg extract + 800 µL CSFxB (2% sucrose), 2 hr at 4 °C, washed twice, boiled in SDS sample buffer; western blot of GCP5 and γ-tubulin, band intensities normalised to the wildtype bait
[7] = target: Strep-His-TEV-HaloTag-3C-Xenopus γTuNA L70A (Xenopus laevis); assay: as above
[8] = target: the molecule itself; assay: SEC; Superdex 200 increase 10/300 GL, ~50 µM (monomer), CSFxB with 6 mM BME without sucrose, 4 °C, 0.7 mL/min; peak retention volumes compared

Strep-His-TEV-HaloTag-3C-Xenopus γTuNA (Xenopus Cdk5rap2 aa 56–101), wildtype F63A
ratio to parent ([1]; N=2): 0.66

Strep-His-TEV-HaloTag-3C-Xenopus γTuNA (Xenopus Cdk5rap2 aa 56–101), wildtype F75A
ratio to parent ([1]; N=2): 0.08 | response ([1]; N=3, parent: est. 1.06): 0.02

Strep-His-TEV-HaloTag-3C-Xenopus γTuNA (Xenopus Cdk5rap2 aa 56–101), wildtype I67D; L70D
response ([1]; N=3, parent: est. 1.06): 0.01

Strep-His-TEV-HaloTag-3C-Xenopus γTuNA (Xenopus Cdk5rap2 aa 56–101), wildtype L77A
ratio to parent ([1]; N=2): 0.05

Strep-His-TEV-HaloTag-3C-human γTuNA (human CDK5RAP2 aa 53–98), wildtype I67A; L70A
response ([1]; N=2, human wildtype not shown in this panel): 0.16

Strep-His-TEV-HaloTag-3C-human γTuNA (human CDK5RAP2 aa 53–98), wildtype I67D; L70D
ratio to parent ([1]; N=3): 0.1

Strep-His-TEV-HaloTag-3C-human γTuNA (human CDK5RAP2 aa 53–98), wildtype I67D; L70D; L77D
ratio to parent ([1]; N=3): 0.07

Strep-His-Xenopus γTuNA I67A (domain or fragment)
MT number (EB1 spots) in egg extract with 2 µM γTuNA, relative to wildtype γTuNA (% of wildtype) [2]: 50

Strep-His-Xenopus γTuNA L70A (domain or fragment)
MT number (EB1 spots) in egg extract with 2 µM γTuNA, relative to wildtype γTuNA (% of wildtype) [2]: 6

Strep-His-Xenopus γTuNA, wildtype (domain or fragment)
MT number (EB1 spots) in Xenopus egg extract by TIRF, titration of γTuNA up to 3.6 µM, fold over buffer [3]: 75 fold

γ-tubulin ring complex (γTuRC), endogenous Xenopus laevis (from UniProt P23330 1-451; Q5U4M5 1-72)
percent of γ-tubulin signal lost from the extract after one depletion [4]: > 75% | percent of purified γTuRCs that retain a γTuNA dimer [5]: 33% | γTuRC pulled down, percent of wildtype [6]: 67% | γTuRC pulled down, percent of wildtype [7]: 35%

B1: Strep-His-TEV-HaloTag-3C-human γTuNA (human CDK5RAP2 aa 53–98), wildtype (domain or fragment)
chain: {Strep‑His-TEV-HaloTag-3C}-SPTRARNMKDFENQITELKKENFNLKLRIYFLEERMQQEFHGPTEH
modifications: reading uncertain
notes: γTuNA (CM1) domain of human CDK5RAP2 isoform A (1893 aa), aa 53–98; TEV and PreScission (3C) cleavage sites lie between the tags and γTuNA; also called Halo-human γTuNA; human wildtype Halo-γTuNA; source: E. coli Rosetta 2 (DE3), purified (Strep-Tactin); not shown: StrepTagII, N-terminal, kept; 6xHis, N-terminal, kept; HaloTag, N-terminal, kept
stoichiometry N [8]: 2

B2: Strep-His-TEV-HaloTag-3C-Xenopus γTuNA (Xenopus Cdk5rap2 aa 56–101), wildtype (domain or fragment, Xenopus laevis)
chain: {Strep‑His-TEV-HaloTag-3C}-MKDFEKQIAELKKENFNLKLRIYFLEEQVQQKCDNSSEDLYRMNIE
modifications: reading uncertain
notes: γTuNA (CM1) domain of Xenopus laevis Cdk5rap2 isoform X1 (905 aa), aa 56–101; TEV and PreScission (3C) cleavage sites lie between the tags and γTuNA; also called Halo-Xenopus γTuNA; Strep-His-Halo-Xenopus γTuNA; source: E. coli Rosetta 2 (DE3), purified (Strep-Tactin); not shown: StrepTagII, N-terminal, kept; 6xHis, N-terminal, kept; HaloTag, N-terminal, kept
stoichiometry N [8]: 2

B3: Strep-His-TEV-HaloTag-3C-Xenopus γTuNA F75A (Xenopus F71A) (domain or fragment, Xenopus laevis)
chain: {Strep‑His-TEV-HaloTag-3C}-MKDFEKQIAELKKENANLKLRIYFLEEQVQQKCDNSSEDLYRMNIE
modifications: reading uncertain
notes: γTuNA of Xenopus laevis Cdk5rap2 isoform X1, aa 56–101; it is F71 in Xenopus; also called Halo-Xenopus γTuNA F75A; Xenopus F75A mutant; source: E. coli Rosetta 2 (DE3), purified (Strep-Tactin); not shown: StrepTagII, N-terminal, kept; 6xHis, N-terminal, kept; HaloTag, N-terminal, kept
binding result [8]: binds
